Earlier results as cited in patent US20230129812A1, “COMPOSITIONS AND METHODS FOR TREATING PULMONARY HYPERTENSION” (Acceleron Pharma Inc., priority 2020, published 2023).
Where a chain is given by its changes, count along the chain named. Numbers in names are those of the source.

T1: GDF11 (Homo sapiens, UniProt O95390)
T1 sequence (O95390 299-407): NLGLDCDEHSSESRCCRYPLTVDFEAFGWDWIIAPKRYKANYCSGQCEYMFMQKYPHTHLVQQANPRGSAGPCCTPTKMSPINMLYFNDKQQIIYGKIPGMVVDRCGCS

T2: ActA (Homo sapiens, UniProt P08476)
T2 sequence (P08476 311-426): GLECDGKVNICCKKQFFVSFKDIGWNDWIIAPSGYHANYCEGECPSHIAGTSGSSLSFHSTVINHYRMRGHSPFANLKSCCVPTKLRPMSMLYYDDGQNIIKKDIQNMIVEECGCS

B1: K74Y: soluble ActRIIB-Fc variant, as reported in WO2006/012627 (protein)
chain: SGRGEAETRECIYYNANWELERTNQSGLERCEGEQDKRLHCYASWANSSGTIELVYKGCWLDDFNCYDRQECVATEENPQVYFCCCEGNFCNERFTHLPEA
modifications: left off: a dimerising Fc or GST
B2: R40A: soluble ActRIIB-Fc variant, as reported in WO2006/012627 (protein)
chain: B1 chain with R22A, Y56K
modifications: left off: a dimerising Fc or GST
B3: K74F: soluble ActRIIB-Fc variant, as reported in WO2006/012627 (protein)
chain: B1 chain with Y56F
modifications: left off: a dimerising Fc or GST
B4: R56A: soluble ActRIIB-Fc variant, as reported in WO2006/012627 (protein)
chain: B1 chain with R38A, Y56K
modifications: left off: a dimerising Fc or GST
B5: D80A: soluble ActRIIB-Fc variant, as reported in WO2006/012627 (protein)
chain: B1 chain with Y56K, D62A
modifications: left off: a dimerising Fc or GST
B6: D54A: soluble ActRIIB-Fc variant, as reported in WO2006/012627 (protein)
chain: B1 chain with D36A, Y56K
modifications: left off: a dimerising Fc or GST
B7: D80K: soluble ActRIIB-Fc variant, as reported in WO2006/012627 (protein)
chain: B1 chain with Y56K, D62K
modifications: left off: a dimerising Fc or GST
B8: K74A: soluble ActRIIB-Fc variant, as reported in WO2006/012627 (protein)
chain: B1 chain with Y56A
modifications: left off: a dimerising Fc or GST
B9: L79A: soluble ActRIIB-Fc variant, as reported in WO2006/012627 (protein)
chain: B1 chain with Y56K, L61A
modifications: left off: a dimerising Fc or GST
B10: D80F: soluble ActRIIB-Fc variant, as reported in WO2006/012627 (protein)
chain: B1 chain with Y56K, D62F
modifications: left off: a dimerising Fc or GST
B11: WT (64R): soluble ActRIIB-Fc, wild type with 64R, as reported in WO2006/012627 (protein)
chain: B1 chain with A46R, Y56K
modifications: left off: a dimerising Fc or GST
B12: D80N: soluble ActRIIB-Fc variant, as reported in WO2006/012627 (protein)
chain: B1 chain with Y56K, D62N
modifications: left off: a dimerising Fc or GST
B13: K74I: soluble ActRIIB-Fc variant, as reported in WO2006/012627 (protein)
chain: B1 chain with Y56I
modifications: left off: a dimerising Fc or GST
B14: D80I: soluble ActRIIB-Fc variant, as reported in WO2006/012627 (protein)
chain: B1 chain with Y56K, D62I
modifications: left off: a dimerising Fc or GST
B15: D80G: soluble ActRIIB-Fc variant, as reported in WO2006/012627 (protein)
chain: B1 chain with Y56K, D62G
modifications: left off: a dimerising Fc or GST
B16: E37A: soluble ActRIIB-Fc variant, as reported in WO2006/012627 (protein)
chain: B1 chain with E19A, Y56K
modifications: left off: a dimerising Fc or GST
B17: F82A: soluble ActRIIB-Fc variant, as reported in WO2006/012627 (protein)
chain: B1 chain with Y56K, F64A
modifications: left off: a dimerising Fc or GST
B18: K55A: soluble ActRIIB-Fc variant, as reported in WO2006/012627 (protein)
chain: B1 chain with K37A, Y56K
modifications: left off: a dimerising Fc or GST
B19: WT (64A): soluble ActRIIB-Fc, wild type with 64A, as reported in WO2006/012627 (protein)
chain: B1 chain with Y56K
modifications: left off: a dimerising Fc or GST
B20: W78A: soluble ActRIIB-Fc variant, as reported in WO2006/012627 (protein)
chain: B1 chain with Y56K, W60A
modifications: left off: a dimerising Fc or GST
B21: D80R: soluble ActRIIB-Fc variant, as reported in WO2006/012627 (protein)
chain: B1 chain with Y56K, D62R
modifications: left off: a dimerising Fc or GST
B22: D80M: soluble ActRIIB-Fc variant, as reported in WO2006/012627 (protein)
chain: B1 chain with Y56K, D62M
modifications: left off: a dimerising Fc or GST
B23: +15tail: soluble ActRIIB-Fc variant with the 15 amino acid tail, as reported in WO2006/012627 (protein)
chain: SGRGEAETRECIYYNANWELERTNQSGLERCEGEQDKRLHCYASWANSSGTIELVKKGCWLDDFNCYDRQECVATEENPQVYFCCCEGNFCNERFTHLPEAGGPEVTYEPPPTAPT
modifications: left off: a dimerising Fc or GST

Experiments:
GDF11 = molecular target: T1, GDF11; set-up: key: *: No observed binding; −−: <⅕ WT binding; −: ~½ WT binding; +: WT; ++: <2x increased binding; +++: ~5x increased binding; ++++: ~10x increased binding; +++++: ~40x increased binding; details: Table 11, reproduced from WO2006/012627; cited from earlier work
ActA = molecular target: T2, ActA; set-up: key to ActA binding relative to WT: *: No observed binding; −−: <⅕ WT binding; −: ~½ WT binding; +: WT; ++: <2x increased binding; +++: ~5x increased binding; ++++: ~10x increased binding; +++++: ~40x increased binding; details: cited from earlier work; for ActA binding relative to WT: Table 11, reproduced from WO2006/012627; for ratio of activin A (ActA) binding to GDF11 binding, relative to the wild-type K74 molecule: WO2006/012627

Molecule	GDF11 binding relative to WT (GDF11)	ActA binding relative to WT (ActA)	ratio of activin A (ActA) binding to GDF11 binding, relative to the wild-type K74 molecule (ActA)
B1	−− (<⅕ WT binding)	*	decrease
B2	− (~½ WT binding)	− (~½ WT binding)	–
B3	−− (<⅕ WT binding)	*	decrease
B4	*	*	–
B5	*	*	–
B6	*	− (~½ WT binding)	–
B7	*	*	–
B8	–	+++++ (~40x increased binding)	–
B9	*	+	–
B10	*	*	–
B11	(+++) (~5x increased binding)	–	–
B12	*	*	–
B13	−− (<⅕ WT binding)	*	decrease
B14	−− (<⅕ WT binding)	*	decrease
B15	*	*	–
B16	*	*	–
B17	− (~½ WT binding)	++ (<2x increased binding)	–
B18	*	++ (<2x increased binding)	–
B19	(+)	(+)	–
B20	*	*	–
B21	*	*	–
B22	*	*	–
B23	(++++) (~10x increased binding)	(+++) (~5x increased binding)	–
